# Source: US20200024330A1
# Legend:
# Assay in all cases: cell-based or functional assay
# [1] = biological target: HIV-1 Env of isolate 6535.3 (HIV-1)
# [2] = biological target: HIV-1 Env of isolate 92BR020 (HIV-1)
# [3] = biological target: HIV-1 Env of isolate 92RW008 (clade A), on pseudovirus (HIV-1)
# [4] = biological target: HIV-1 Env of isolate 92RW009 (clade A), on pseudovirus (HIV-1)
# [5] = biological target: HIV-1 Env of isolate 92TH021 (pseudovirus) (HIV-1)
# [6] = biological target: HIV-1 Env of isolate 92UG001 (subtype D), on pseudovirus (HIV-1)
# [7] = biological target: HIV-1 Env of isolate 92UG005 (subtype D), on pseudovirus (HIV-1)
# [8] = biological target: HIV-1 Env of isolate 92UG024 (subtype D), on pseudovirus (HIV-1)
# [9] = biological target: HIV-1 Env of isolate 92UG031 (pseudovirus) (HIV-1)
# [10] = biological target: HIV-1 Env of isolate 92UG037 (pseudovirus) (HIV-1)
# [11] = biological target: HIV-1 Env of isolate 92UG046 (subtype D), on pseudovirus (HIV-1)
# [12] = biological target: HIV-1 Env of isolate 92UG114 (subtype D), on pseudovirus (HIV-1)
# [13] = biological target: HIV-1 Env of isolate 92WR020 (pseudovirus) (HIV-1)
# [14] = biological target: HIV-1 Env of isolate 92WR021 (pseudovirus) (HIV-1)
# [15] = biological target: HIV-1 Env of isolate 92WR024 (pseudovirus) (HIV-1)
# [16] = biological target: HIV-1 Env of isolate 92WR026 (pseudovirus) (HIV-1)
# [17] = biological target: HIV-1 Env of isolate 93TH305 (HIV-1)
# [18] = biological target: HIV-1 Env of isolate 93UG077 (pseudovirus) (HIV-1)
# [19] = biological target: HIV-1 Env of isolate 93WR029 (pseudovirus) (HIV-1)
# [20] = biological target: HIV-1 Env of isolate 94 KE 105 (pseudovirus) (HIV-1)
# [21] = biological target: HIV-1 Env of isolate 94UG103 (pseudovirus) (HIV-1)
# [22] = biological target: HIV-1 Env of isolate 98CN006 (subtype CRF08 BC), on pseudovirus (HIV-1)
# [23] = biological target: HIV-1 Env of isolate 98CN009 (subtype CRF07_BC), on pseudovirus (HIV-1)
# [24] = biological target: HIV-1 Env of isolate APV_13 (HIV-1)
# [25] = biological target: HIV-1 Env of isolate APV_17 (HIV-1)
# [26] = biological target: HIV-1 Env of isolate APV_6 (HIV-1)
# [27] = biological target: HIV-1 Env of isolate CAAN.A2 (HIV-1)
# [28] = biological target: HIV-1 Env of isolate CMU02 (pseudovirus) (HIV-1)
# [29] = biological target: HIV-1 Env of isolate JRFL (HIV-1)
# [30] = biological target: HIV-1 Env of isolate MG RM-A-005 (pseudovirus) (HIV-1)
# [31] = biological target: HIV-1 Env of isolate MG RM-A-006 (pseudovirus) (HIV-1)
# [32] = biological target: HIV-1 Env of isolate MG RM-A-007 (pseudovirus) (HIV-1)
# [33] = biological target: HIV-1 Env of isolate MG RM-A-008 (pseudovirus) (HIV-1)
# [34] = biological target: HIV-1 Env of isolate MG RM-A-009 (pseudovirus) (HIV-1)
# [35] = biological target: HIV-1 Env of isolate MG RM-A-010 (pseudovirus) (HIV-1)
# [36] = biological target: HIV-1 Env of isolate MG RM-A-011 (pseudovirus) (HIV-1)
# [37] = biological target: HIV-1 Env of isolate MG RM-A-012 (pseudovirus) (HIV-1)
# [38] = biological target: HIV-1 Env of isolate MG RM-A-013 (pseudovirus) (HIV-1)
# [39] = biological target: HIV-1 Env of isolate MG RM-A-014 (pseudovirus) (HIV-1)
# [40] = biological target: HIV-1 Env of isolate MGRM-AE-001 (pseudovirus) (HIV-1)
# [41] = biological target: HIV-1 Env of isolate MGRM-AE-002 (pseudovirus) (HIV-1)
# [42] = biological target: HIV-1 Env of isolate MGRM-AE-003 (pseudovirus) (HIV-1)
# [43] = biological target: HIV-1 Env of isolate MGRM-AE-004 (pseudovirus) (HIV-1)
# [44] = biological target: HIV-1 Env of isolate MGRM-AE-005 (pseudovirus) (HIV-1)
# [45] = biological target: HIV-1 Env of isolate MGRM-AE-006 (pseudovirus) (HIV-1)
# [46] = biological target: HIV-1 Env of isolate MGRM-Chronic-B-001 (HIV-1)
# [47] = biological target: HIV-1 Env of isolate MGRM-Chronic-B-002 (HIV-1)
# [48] = biological target: HIV-1 Env of isolate MGRM-Chronic-B-003 (HIV-1)
# [49] = biological target: HIV-1 Env of isolate MGRM-Chronic-B-004 (HIV-1)
# [50] = biological target: HIV-1 Env of isolate MGRM-Chronic-B-008 (HIV-1)
# [51] = biological target: HIV-1 Env of isolate MGRM-D-001 (subtype D), on pseudovirus (HIV-1)
# [52] = biological target: HIV-1 Env of isolate MGRM-D-002 (subtype D), on pseudovirus (HIV-1)
# [53] = biological target: HIV-1 Env of isolate MGRM-D-003 (subtype D), on pseudovirus (HIV-1)
# [54] = biological target: HIV-1 Env of isolate MGRM-D-004 (subtype D), on pseudovirus (HIV-1)
# [55] = biological target: HIV-1 Env of isolate MGRM-D-005 (subtype D), on pseudovirus (HIV-1)
# [56] = biological target: HIV-1 Env of isolate MGRM-D-008 (subtype D), on pseudovirus (HIV-1)
# [57] = biological target: HIV-1 Env of isolate VLGCA1 (pseudovirus) (HIV-1)
# 4995_P16 (PGT-145) (antibody), sequence (VH): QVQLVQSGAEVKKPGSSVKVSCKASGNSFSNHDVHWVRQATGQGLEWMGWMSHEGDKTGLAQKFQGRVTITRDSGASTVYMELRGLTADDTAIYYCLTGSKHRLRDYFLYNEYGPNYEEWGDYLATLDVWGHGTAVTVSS
# 4995_P16 (PGT-145) (antibody), sequence (VL): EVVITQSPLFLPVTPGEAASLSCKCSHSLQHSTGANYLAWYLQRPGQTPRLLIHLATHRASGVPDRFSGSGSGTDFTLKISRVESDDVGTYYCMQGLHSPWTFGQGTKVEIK
substance,measurement,setting,value
4995_P16 (PGT-145) (antibody),IC50,[1],> 50 µg/mL
same,IC50,[2],1.05 µg/mL
same,"IC50, single-round pseudovirus neutralization",[3],0.4 µg/mL
same,"IC50, single-round pseudovirus neutralization",[4],0.026 µg/mL
same,"IC50 (µg/mL), pseudovirus neutralization",[5],0.013 µg/mL
same,"IC50, pseudovirus neutralization",[6],> 50 µg/mL
same,"IC50, pseudovirus neutralization",[7],> 50 µg/mL
same,"IC50, pseudovirus neutralization",[8],1.6 µg/mL
same,"IC50 (µg/mL), pseudovirus neutralization",[9],3.22 µg/mL
same,"IC50 (µg/mL), pseudovirus neutralization",[10],3.15 µg/mL
same,"IC50, pseudovirus neutralization",[11],> 50 µg/mL
same,"IC50, pseudovirus neutralization",[12],20.1 µg/mL
same,"IC50 (µg/mL), pseudovirus neutralization",[13],0.997 µg/mL
same,"IC50 (µg/mL), pseudovirus neutralization",[14],1.62 µg/mL
same,"IC50 (µg/mL), pseudovirus neutralization",[15],0.069 µg/mL
same,"IC50 (µg/mL), pseudovirus neutralization",[16],1.45 µg/mL
same,IC50,[17],0.032 µg/mL
same,"IC50 (µg/mL), pseudovirus neutralization",[18],> 50 µg/mL
same,"IC50 (µg/mL), pseudovirus neutralization",[19],> 50 µg/mL
same,"IC50 (µg/mL), pseudovirus neutralization",[20],1.32 µg/mL
same,"IC50 (µg/mL), pseudovirus neutralization",[21],0.331 µg/mL
same,"IC50, pseudovirus neutralization",[22],> 50 µg/mL
same,"IC50, pseudovirus neutralization",[23],0.136 µg/mL
same,IC50,[24],0.337 µg/mL
same,IC50,[25],0.488 µg/mL
same,IC50,[26],0.104 µg/mL
same,IC50,[27],7.08 µg/mL
same,"IC50 (µg/mL), pseudovirus neutralization",[28],1.43 µg/mL
same,IC50,[29],30.4 µg/mL
same,"IC50 (µg/mL), pseudovirus neutralization",[30],0.128 µg/mL
same,"IC50 (µg/mL), pseudovirus neutralization",[31],> 50 µg/mL
same,"IC50 (µg/mL), pseudovirus neutralization",[32],> 50 µg/mL
same,"IC50 (µg/mL), pseudovirus neutralization",[33],> 50 µg/mL
same,"IC50 (µg/mL), pseudovirus neutralization",[34],0.235 µg/mL
same,"IC50 (µg/mL), pseudovirus neutralization",[35],0.028 µg/mL
same,"IC50 (µg/mL), pseudovirus neutralization",[36],0.484 µg/mL
same,"IC50 (µg/mL), pseudovirus neutralization",[37],0.23 µg/mL
same,"IC50 (µg/mL), pseudovirus neutralization",[38],1.76 µg/mL
same,"IC50 (µg/mL), pseudovirus neutralization",[39],1.36 µg/mL
same,"IC50 (µg/mL), pseudovirus neutralization",[40],20.9 µg/mL
same,"IC50 (µg/mL), pseudovirus neutralization",[41],1.87 µg/mL
same,"IC50 (µg/mL), pseudovirus neutralization",[42],0.552 µg/mL
same,"IC50 (µg/mL), pseudovirus neutralization",[43],0.006 µg/mL
same,"IC50 (µg/mL), pseudovirus neutralization",[44],0.967 µg/mL
same,"IC50 (µg/mL), pseudovirus neutralization",[45],> 50 µg/mL
same,IC50,[46],3.22 µg/mL
same,IC50,[47],3.67 µg/mL
same,IC50,[48],0.045 µg/mL
same,IC50,[49],0.023 µg/mL
same,IC50,[50],1.9 µg/mL
same,"IC50, pseudovirus neutralization",[51],0.56 µg/mL
same,"IC50, pseudovirus neutralization",[52],> 50 µg/mL
same,"IC50, pseudovirus neutralization",[53],0.006 µg/mL
same,"IC50, pseudovirus neutralization",[54],10.9 µg/mL
same,"IC50, pseudovirus neutralization",[55],10.4 µg/mL
same,"IC50, pseudovirus neutralization",[56],0.025 µg/mL
same,"IC50 (µg/mL), pseudovirus neutralization",[57],8.01 µg/mL
